{"source": "patent US20110142868A1", "about": "(CHIRALIX B V, published 2011)", "binders": {"B1": {"name": "CXP5-101 (peptide)", "peptide": "Moc-TD[Orn(fluoroacetimidoyl)]GS-OMe", "SMILES": "COC(=O)N[C@H](C(=O)N[C@@H](CC(=O)O)C(=O)N[C@@H](CCCNC(=N)CF)C(=O)NCC(=O)N[C@@H](CO)C(=O)OC)[C@@H](C)O"}, "B2": {"name": "0743-58FA (peptide)", "peptide": "Ac-KFD[Orn(fluoroacetimidoyl)]DFI-NH2", "SMILES": "CC[C@H](C)[C@H](NC(=O)[C@H](Cc1ccccc1)NC(=O)[C@H](CC(=O)O)NC(=O)[C@H](CCCNC(=N)CF)NC(=O)[C@H](CC(=O)O)NC(=O)[C@H](Cc1ccccc1)NC(=O)[C@H](CCCCN)NC(C)=O)C(N)=O"}}, "experiment_in_all_cases": "cell-based or functional assay", "key": {"[1]": {"target": "human N(G),N(G)-dimethyl-L-arginine dimethylaminohydrolase isotype 1 (human, UniProt O94760 1-285)", "sequence (O94760 whole entry)": "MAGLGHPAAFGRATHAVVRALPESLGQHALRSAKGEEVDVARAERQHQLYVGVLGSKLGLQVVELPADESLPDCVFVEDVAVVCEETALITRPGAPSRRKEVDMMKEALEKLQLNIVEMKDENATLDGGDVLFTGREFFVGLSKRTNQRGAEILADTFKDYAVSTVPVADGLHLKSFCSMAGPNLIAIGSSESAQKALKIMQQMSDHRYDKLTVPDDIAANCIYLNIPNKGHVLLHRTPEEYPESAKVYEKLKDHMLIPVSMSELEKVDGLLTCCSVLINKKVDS"}, "[2]": {"target": "T1, recombinant human PAD2 (human, UniProt Q9Y2J8 1-665)", "T1 sequence (Q9Y2J8 whole entry)": "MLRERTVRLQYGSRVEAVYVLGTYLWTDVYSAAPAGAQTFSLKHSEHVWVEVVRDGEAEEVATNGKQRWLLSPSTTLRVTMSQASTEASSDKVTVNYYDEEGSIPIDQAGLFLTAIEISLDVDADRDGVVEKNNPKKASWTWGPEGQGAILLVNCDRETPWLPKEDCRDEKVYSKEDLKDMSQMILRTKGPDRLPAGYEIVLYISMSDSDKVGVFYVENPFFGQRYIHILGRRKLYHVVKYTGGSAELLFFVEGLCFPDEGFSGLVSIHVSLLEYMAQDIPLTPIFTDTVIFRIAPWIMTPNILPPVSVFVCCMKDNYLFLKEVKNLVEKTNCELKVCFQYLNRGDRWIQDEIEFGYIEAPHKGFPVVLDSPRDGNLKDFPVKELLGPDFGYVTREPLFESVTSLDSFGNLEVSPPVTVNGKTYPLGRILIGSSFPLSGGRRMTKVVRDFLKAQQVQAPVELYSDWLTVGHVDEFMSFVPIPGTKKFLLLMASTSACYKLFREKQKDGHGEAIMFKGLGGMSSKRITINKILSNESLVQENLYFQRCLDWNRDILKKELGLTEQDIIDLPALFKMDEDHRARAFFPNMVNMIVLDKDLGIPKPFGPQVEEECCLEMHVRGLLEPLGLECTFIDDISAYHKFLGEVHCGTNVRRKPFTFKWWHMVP"}, "[3]": {"target": "caspase-3"}, "[4]": {"target": "T2, recombinant human PAD4 (human, UniProt Q9UM07 1-663)", "T2 sequence (Q9UM07 whole entry)": "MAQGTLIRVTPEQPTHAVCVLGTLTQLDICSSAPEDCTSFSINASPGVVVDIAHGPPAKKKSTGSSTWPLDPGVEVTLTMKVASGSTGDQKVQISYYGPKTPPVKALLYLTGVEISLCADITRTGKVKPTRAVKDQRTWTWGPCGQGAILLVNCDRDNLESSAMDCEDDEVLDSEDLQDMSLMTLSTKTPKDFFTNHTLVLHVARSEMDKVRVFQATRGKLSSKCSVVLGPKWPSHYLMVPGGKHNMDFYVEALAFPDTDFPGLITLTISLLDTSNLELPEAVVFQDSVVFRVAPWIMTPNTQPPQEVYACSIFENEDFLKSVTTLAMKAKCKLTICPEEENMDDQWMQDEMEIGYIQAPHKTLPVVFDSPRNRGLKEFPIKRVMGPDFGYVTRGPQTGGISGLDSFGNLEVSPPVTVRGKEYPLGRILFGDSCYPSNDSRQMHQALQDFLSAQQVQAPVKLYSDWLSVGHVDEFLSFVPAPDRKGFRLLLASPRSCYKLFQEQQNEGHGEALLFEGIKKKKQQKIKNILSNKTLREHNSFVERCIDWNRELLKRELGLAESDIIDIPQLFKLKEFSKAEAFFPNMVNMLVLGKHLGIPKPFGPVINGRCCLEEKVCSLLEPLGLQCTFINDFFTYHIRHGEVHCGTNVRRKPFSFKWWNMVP"}, "[5]": {"target": "transglutaminase"}, "[6]": {"target": "creatine kinase"}, "[7]": {"target": "T3, papain (UniProt P00784 134-345)", "T3 sequence (looked up)": "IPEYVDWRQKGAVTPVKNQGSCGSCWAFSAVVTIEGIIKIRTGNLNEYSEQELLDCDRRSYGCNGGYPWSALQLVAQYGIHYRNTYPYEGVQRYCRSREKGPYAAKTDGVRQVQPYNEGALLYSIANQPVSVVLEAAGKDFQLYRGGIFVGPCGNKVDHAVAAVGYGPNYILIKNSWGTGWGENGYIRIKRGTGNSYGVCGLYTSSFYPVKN"}, "[8]": {"target": "T1, recombinant human PAD2", "remark": "listed apart in the source"}, "[9]": {"target": "T1, recombinant human PAD2", "remark": "listed apart in the source"}, "[10]": {"target": "T2, recombinant human PAD4", "remark": "listed apart in the source"}, "[11]": {"target": "T2, recombinant human PAD4", "remark": "listed apart in the source"}}, "note": "Numbered stars: 1 amine (or outer) side, 2 acyl side, 3 side chain; on linkers, the order of the positions; unused ones are H or OH. Square brackets hold non-standard residues; d marks the D form. Ends that are not written are not given here. * marks the point of attachment. O(CA) = ornithine chloroamidine, N=C(CCl)NCCC[C@H](N[*:1])C(=O)[*:2]; Orn(fluoroacetimidoyl) = N=C(CF)NCCC[C@H](N)C(=O)O; Moc = COC(=O)*"}
{"binder": "Ac-YD[O(CA)]GS", "note": "[CXP5.2-081]", "values": [{"measurement": "IC50 values (µM), hDDAH-1 activity assay", "setting": "[1]", "result": 1330, "unit": "µM"}, {"measurement": "IC50 values (µM), colorimetric assay", "setting": "[2]", "result": 200, "unit": "µM"}, {"measurement": "IC50 values (µM), caspase-3 activity assay", "setting": "[3]", "result": "> 1000", "unit": "µM"}, {"measurement": "IC50 values (µM), colorimetric assay", "setting": "[4]", "result": 10, "unit": "µM"}, {"measurement": "IC50 values (µM), transglutaminase activity assay", "setting": "[5]", "result": "> 1000", "unit": "µM"}, {"measurement": "IC50 values (µM), creatine kinase activity assay", "setting": "[6]", "result": 1000, "unit": "µM"}, {"measurement": "IC50 values (µM), papain activity assay", "setting": "[7]", "result": "> 2000", "unit": "µM"}]}
{"binder": "B1", "values": [{"measurement": "IC50 values (µM), hDDAH-1 activity assay", "setting": "[1]", "result": "> 2000", "unit": "µM"}, {"measurement": "IC50 values (µM), colorimetric assay", "setting": "[2]", "result": 35, "unit": "µM"}, {"measurement": "IC50 values (µM), caspase-3 activity assay", "setting": "[3]", "result": "> 1000", "unit": "µM"}, {"measurement": "IC50 values (µM), colorimetric assay", "setting": "[4]", "result": 10, "unit": "µM"}, {"measurement": "IC50 values (µM), transglutaminase activity assay", "setting": "[5]", "result": 600, "unit": "µM"}, {"measurement": "IC50 values (µM), creatine kinase activity assay", "setting": "[6]", "result": 780, "unit": "µM"}, {"measurement": "IC50 values (µM), papain activity assay", "setting": "[7]", "result": "> 2000", "unit": "µM"}]}
{"binder": "B2", "values": [{"measurement": "Inhibition of PAD2: value at 10 µM inhibitor (0 µM: 74)", "setting": "[8]", "result": 39, "unit": "%"}, {"measurement": "Inhibition of PAD2: value at 20 µM inhibitor (0 µM: 74)", "setting": "[8]", "result": 26, "unit": "%"}, {"measurement": "Inhibition of PAD2: value at 40 µM inhibitor (0 µM: 74)", "setting": "[8]", "result": 15, "unit": "%"}, {"measurement": "Inhibition of PAD2: value at 80 µM inhibitor (0 µM: 74)", "setting": "[8]", "result": 9, "unit": "%"}, {"measurement": "conversion of 0708-30 by PAD2, 10 µM inhibitor (0 µM: 68)", "setting": "[9]", "result": 33, "unit": "%"}, {"measurement": "conversion of 0708-30 by PAD2, 50 µM inhibitor (0 µM: 68)", "setting": "[9]", "result": 8, "unit": "%"}, {"measurement": "conversion of 0708-30 by PAD2, 100 µM inhibitor (0 µM: 68)", "setting": "[9]", "result": 4, "unit": "%"}, {"measurement": "IC50 values (µM), hDDAH-1 activity assay", "setting": "[1]", "result": "> 2000", "unit": "µM"}, {"measurement": "IC50 values (µM), colorimetric assay", "setting": "[2]", "result": 35, "unit": "µM"}, {"measurement": "IC50 values (µM), caspase-3 activity assay", "setting": "[3]", "result": 920, "unit": "µM"}, {"measurement": "IC50 values (µM), colorimetric assay", "setting": "[4]", "result": 6, "unit": "µM"}, {"measurement": "IC50 values (µM), transglutaminase activity assay", "setting": "[5]", "result": 1000, "unit": "µM"}, {"measurement": "IC50 values (µM), creatine kinase activity assay", "setting": "[6]", "result": 800, "unit": "µM"}, {"measurement": "IC50 values (µM), papain activity assay", "setting": "[7]", "result": "> 2000", "unit": "µM"}, {"measurement": "conversion of 0708-30 by PAD4, 10 µM inhibitor (0 µM: 81)", "setting": "[10]", "result": 38, "unit": "%"}, {"measurement": "conversion of 0708-30 by PAD4, 50 µM inhibitor (0 µM: 81)", "setting": "[10]", "result": 19, "unit": "%"}, {"measurement": "conversion of 0708-30 by PAD4, 100 µM inhibitor (0 µM: 81)", "setting": "[10]", "result": 10, "unit": "%"}, {"measurement": "Inhibition of PAD4: value at 10 µM inhibitor (0 µM: 71)", "setting": "[11]", "result": 46, "unit": "%"}, {"measurement": "Inhibition of PAD4: value at 20 µM inhibitor (0 µM: 71)", "setting": "[11]", "result": 36, "unit": "%"}, {"measurement": "Inhibition of PAD4: value at 40 µM inhibitor (0 µM: 71)", "setting": "[11]", "result": 18, "unit": "%"}, {"measurement": "Inhibition of PAD4: value at 80 µM inhibitor (0 µM: 71)", "setting": "[11]", "result": 13, "unit": "%"}]}
{"binder": "Ac-GD[O(CA)]GS", "note": "[CXP5.2-078]", "values": [{"measurement": "IC50 values (µM), hDDAH-1 activity assay", "setting": "[1]", "result": 1200, "unit": "µM"}, {"measurement": "IC50 values (µM), colorimetric assay", "setting": "[2]", "result": "> 500", "unit": "µM"}, {"measurement": "IC50 values (µM), caspase-3 activity assay", "setting": "[3]", "result": 1000, "unit": "µM"}, {"measurement": "IC50 values (µM), colorimetric assay", "setting": "[4]", "result": 18, "unit": "µM"}, {"measurement": "IC50 values (µM), transglutaminase activity assay", "setting": "[5]", "result": 730, "unit": "µM"}, {"measurement": "IC50 values (µM), creatine kinase activity assay", "setting": "[6]", "result": 780, "unit": "µM"}, {"measurement": "IC50 values (µM), papain activity assay", "setting": "[7]", "result": 1050, "unit": "µM"}]}
